# Source: patent US20240216553A1, “DEVELOPMENT OF CD163 TARGETING AGENT FOR IMAGING AND THERAPY” (Washington University, priority 2022, published 2024)
# Square brackets hold non-standard residues; d marks the D form. Ends that are not written are not given here. Peptide text beside a SMILES is read from it. * marks the point of attachment. X1 = O=C(O)CN1CCN(CC(=O)O)CCN(CC(=O)NCCN2C(=O)CC(*)C2=O)CCN(CC(=O)O)CC1
# T1: recombinant human CCR2 N-terminus protein (1-42 amino acids) (Homo sapiens, UniProt P41597)
# T1 construct: recombinant human CCR2 N-terminus protein (1-42 amino acids)
# T1 sequence (P41597 1-42): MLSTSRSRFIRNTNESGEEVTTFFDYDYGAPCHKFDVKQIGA
# Experiments:
# [1] = biological target: CCR2 (human, on THP-1 cells and in human HNSCC tissue) (human) (UniProt P41597); test: in vitro binding assay using THP-1 cells (competitive receptor binding with the non-radioactive counterpart, per paragraph 179)
# [2] = human, in vivo
# Description: Translation of [^64Cu]-DOTA-ECL1i for human Imaging. Animal toxicity studies with non-radioactive Cu-DOTA-ECL1i, dosimetry using [^64Cu]-DOTA-ECL1i in naïve mice were performed and submitted the exploratory investigative new drug (eIND) application to US Food Drug Administration (FDA). Following approvals from FDA, Washington University Radioactive Drug Research Committee (RDRC) and Institutional Review Board (IRB), the human dosimetry studied in six healthy volunteers (3 males, 3 females) who were injected with [^64Cu]-DOTA-ECL1i (5.2 mCi-10.4 mCi) and scanned at 15-30 min, 2-4 h, 20 h, and 44 h post injection was initiated. […] Approximately 80% of the activity was excreted in the urine within 2-4 hours after injection. […] The gender average Effective Dose was 0.064±0.012 rem/mCi (0.073 rem/mCi for females and 0.056 rem/mCi for the males). The critical organ for both genders was the urinary bladder wall, with the highest average estimated dose derived from the female model at 0.45 rad/mCi. Therefore, a dose of 8-10 mCi was injected to each patient in the HNSCC patient studies.
# [3] = biological target: T1, recombinant human CCR2 N-terminus protein (1-42 amino acids); test: Peptide ELISA of biotin-labelled peptides; format: binding; parameters: dose or concentration left out as unconfirmed; conditions: n=3/group
# Description: Phage display screening and identification of new CCR2 binding peptides. Using a recombinant human CCR2 N-terminus protein (1-42 amino acids) with a glutathione s-transferase (GST) tag, phage display screening was performed using Ph.D.™-12 peptide library to identify sequences binding to CCR2. After three rounds of phage selections, 50 phages were selected to amplify in E. coli, titer, and for DNA sequencing. Enzyme-linked immunosorbent assay (ELISA) was performed with pre-selected phages and identified five peptide sequences showing potential binding to CCR2. These peptides conjugated with biotin labels were customized for further peptide ELISA assays. […] Therefore, these peptides were selected as CCR2 binding sequences to synthesize peptide-chelator conjugates. To further confirm the specific binding of these peptides, peptide docking studies were performed based on a crystal structure of CCR2 (PDB Id 6GPS) and receptor structures resulting from molecular dynamics simulations of CCR2 and endogenous ligand CCL2 complex using the program AutoDock CrankPep.
# [4] = biological target: T2, CD163 (human, on CD163 overexpressing U87 cells and in human carotid endarterectomy tissue) (human, UniProt Q86VB7 42-1156); test: competitive cell binding on CD163 overexpressing U87 cells; 37 kBq ^64Cu-ICT-01 with non-radioactive ICT-01 at 10^-5-10^-10 M, gamma counting
# T2 construct: whole, on cells; also called CD163 receptor; human CD163
# Description: An in vitro cell binding assay of ⁶⁴Cu-ICT-01 to CD163 was performed with a CD163 overexpressing U87 cell line. U87 cells seeded on a 12-well tissue culture plate were incubated at room temperature with 37 kBq of ⁶⁴Cu-ICT-01 in the presence of non-radioactive ICT-01 in increasing concentrations (10⁻⁵-10⁻¹⁰ M) in binding media (Dulbecco's Modified Eagle Medium (DMEM): 25 mM HEPES, 0.2% bovine serum albumin (BSA), and 0.3 mM 1,10-phenanthroline). The reaction media was aspirated after incubation. Cells were rinsed with 0.8 mL of ice-cold pH 7.4, 0.2% BSA/0.01 M phosphate buffered saline (PBS) twice and lysed in 0.8 mL of 1 M NaOH for 10 min. Each well was rinsed with 0.8 mL of PBS (1×, pH7.4)/0.2% BSA, which was collected into a plastic tube. The radioactivity in tubes was measured with a gamma counter (Wallac Wizard 1480, Perkin Elmer). The half-maximal inhibitory concentration (IC₅₀) for ⁶⁴Cu-ICT-01 was calculated using the GraphPad Prism (10.0.2).
# [5] = biological target: T2, CD163 (human, on CD163 overexpressing …); test: competitive cell binding on U87 cells overexpressing CD163; cold ICT-01 displaces ^64Cu-ICT-01
# Description: The in vitro cell binding assay of ⁶⁴Cu-ICT-01 was performed in U87 cells, which overexpresses CD163 receptor.
# T2 sequence (Q86VB7 42-1156): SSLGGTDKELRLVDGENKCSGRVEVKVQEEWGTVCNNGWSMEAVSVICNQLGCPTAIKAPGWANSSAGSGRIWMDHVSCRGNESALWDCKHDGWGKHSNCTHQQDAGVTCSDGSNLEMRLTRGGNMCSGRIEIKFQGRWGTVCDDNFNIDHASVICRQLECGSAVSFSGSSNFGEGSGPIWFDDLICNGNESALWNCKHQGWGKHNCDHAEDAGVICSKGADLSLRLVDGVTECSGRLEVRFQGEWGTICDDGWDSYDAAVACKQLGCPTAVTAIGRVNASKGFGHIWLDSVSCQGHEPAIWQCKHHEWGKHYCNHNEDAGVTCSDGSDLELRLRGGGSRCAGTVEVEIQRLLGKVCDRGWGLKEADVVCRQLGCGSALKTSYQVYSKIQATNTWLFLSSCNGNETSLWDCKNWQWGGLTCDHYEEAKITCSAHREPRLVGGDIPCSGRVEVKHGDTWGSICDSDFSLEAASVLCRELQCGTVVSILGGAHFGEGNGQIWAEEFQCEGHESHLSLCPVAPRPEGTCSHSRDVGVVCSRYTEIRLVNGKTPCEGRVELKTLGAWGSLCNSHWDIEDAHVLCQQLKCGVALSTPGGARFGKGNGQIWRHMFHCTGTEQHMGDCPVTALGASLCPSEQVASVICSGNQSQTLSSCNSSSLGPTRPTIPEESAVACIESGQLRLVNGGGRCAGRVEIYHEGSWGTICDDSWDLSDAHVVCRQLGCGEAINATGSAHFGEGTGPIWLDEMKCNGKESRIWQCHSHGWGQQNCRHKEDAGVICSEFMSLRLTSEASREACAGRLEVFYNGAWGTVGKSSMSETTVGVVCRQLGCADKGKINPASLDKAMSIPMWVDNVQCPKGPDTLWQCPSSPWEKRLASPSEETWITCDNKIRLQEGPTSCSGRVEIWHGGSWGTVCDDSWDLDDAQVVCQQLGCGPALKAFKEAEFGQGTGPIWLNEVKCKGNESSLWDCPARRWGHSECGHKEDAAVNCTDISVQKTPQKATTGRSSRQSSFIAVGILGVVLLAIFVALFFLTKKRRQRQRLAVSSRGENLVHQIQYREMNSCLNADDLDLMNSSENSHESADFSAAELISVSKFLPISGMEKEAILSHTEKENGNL
molecule,measurement,setting,value
[^64Cu]-DOTA-ECL1i (peptide),IC50,[1],58.3 nM
"CC(C)C[C@@H](N)C(=O)NCC(=O)N[C@@H](C(=O)N[C@H](Cc1ccccc1)C(=O)N[C@H](CC(C)C)C(=O)N[C@H](CCCCN)C(=O)N[C@H](CSC1CC(=O)N(CCNC(=O)CN2CCN(CC(=O)O)CCN(CC(=O)O)CCN(CC(=O)O)CC2)C1=O)C(=O)O)[C@H](C)O (stereo partly drawn) [[^64Cu]-DOTA-ECL1i, metal not drawn] (H-[dL]G[dT][dF][dL][dK][dC](X1)-OH; N-terminus and C-terminus assumed)","Effective Dose, females",[2],0.073 rem/mCi
same,"Effective Dose, males",[2],0.056 rem/mCi
same,gender average Effective Dose,[2],0.064±0.012 rem/mCi
same,"highest average estimated dose, urinary bladder wall (critical organ)",[2],0.45 rad/mCi
LIPAPGGTPRAG [P21],binding to CCR2 N-terminus protein compared to GST tag alone and BSA,[3],significantly higher binding
HWKWLKPWAVNT [P15],binding to CCR2 N-terminus protein compared to GST tag alone and BSA,[3],significantly higher binding
VDDHYGTIVRNG [P08],binding to CCR2 N-terminus protein compared to GST tag alone and BSA,[3],significantly higher binding
"WFWNHGWQWSSK (not fully specified, also called non-radioactive ICT-01; CD163 targeting peptide ICT-01) [ICT-01 (non-radioactive)]",IC50,[4],14.4 nM
same,IC50,[5],26.8 nM
